# Assay results: article PMC12270161
# Columns and labels:
# [1] = SEC; Superdex 200 Increase 10/300 GL, antigens (40 ug) in PBS; percent of total antigen in aggregate, trimer and monomer fractions by area under the curve
# P03420 = assay: as above
# [2] = molecular target: hMPV Fsol (non-stabilised soluble hMPV F, post-fusion control) (human metapneumovirus (hMPV)); assay: as above
# [3] = molecular target: hMPV F DsCavEs2 (pre-fusion stabilised comparator with foldon) (human metapneumovirus (hMPV) | bacteriophage T4); assay: as above
# [4] = molecular target: RSV F DsCav1 (pre-fusion stabilised comparator with foldon) (respiratory syncytial virus (RSV) | bacteriophage T4) (UniProt P03420); assay: as above
substance,measurement,setting,value
"hMPV Fsol (non-stabilised soluble hMPV F, post-fusion control)","percent trimer (SEC, area under curve)",[1],"hMPV Fsol, 25% aggregate, 19% trimer, 56% monomer"
RSV F DsCav1 (pre-fusion stabilised comparator with foldon),"percent trimer (SEC, area under curve)",P03420,"RSV DSCav1, 69% trimer"
"hMPV Fsol (non-stabilised soluble hMPV F, post-fusion control) (domain or fragment)",stoichiometry N,[2],3
hMPV F DsCavEs2 (pre-fusion stabilised comparator with foldon),"percent trimer (SEC, area under curve)",[1],"hMPV DSCavEs2, 54% trimer"
same,stoichiometry N,[3],3
RSV F DsCav1 (pre-fusion stabilised comparator with foldon) (from UniProt P03420 26-524),stoichiometry N,[4],3
